The target in the assay is integrin α5β1 ectodomain (α5 F1–Y954/β1 Q1–D708) (UniProt P08648;P05556). Kind of assay: fluorescence polarisation. For orientation: Fluorescence polarisation rises when a labelled molecule tumbles more slowly, as on binding a larger partner.
Sequence of integrin α5β1 ectodomain (α5 F1–Y954/β1 Q1–D708) (P08648 42-995, chain 1 of 2): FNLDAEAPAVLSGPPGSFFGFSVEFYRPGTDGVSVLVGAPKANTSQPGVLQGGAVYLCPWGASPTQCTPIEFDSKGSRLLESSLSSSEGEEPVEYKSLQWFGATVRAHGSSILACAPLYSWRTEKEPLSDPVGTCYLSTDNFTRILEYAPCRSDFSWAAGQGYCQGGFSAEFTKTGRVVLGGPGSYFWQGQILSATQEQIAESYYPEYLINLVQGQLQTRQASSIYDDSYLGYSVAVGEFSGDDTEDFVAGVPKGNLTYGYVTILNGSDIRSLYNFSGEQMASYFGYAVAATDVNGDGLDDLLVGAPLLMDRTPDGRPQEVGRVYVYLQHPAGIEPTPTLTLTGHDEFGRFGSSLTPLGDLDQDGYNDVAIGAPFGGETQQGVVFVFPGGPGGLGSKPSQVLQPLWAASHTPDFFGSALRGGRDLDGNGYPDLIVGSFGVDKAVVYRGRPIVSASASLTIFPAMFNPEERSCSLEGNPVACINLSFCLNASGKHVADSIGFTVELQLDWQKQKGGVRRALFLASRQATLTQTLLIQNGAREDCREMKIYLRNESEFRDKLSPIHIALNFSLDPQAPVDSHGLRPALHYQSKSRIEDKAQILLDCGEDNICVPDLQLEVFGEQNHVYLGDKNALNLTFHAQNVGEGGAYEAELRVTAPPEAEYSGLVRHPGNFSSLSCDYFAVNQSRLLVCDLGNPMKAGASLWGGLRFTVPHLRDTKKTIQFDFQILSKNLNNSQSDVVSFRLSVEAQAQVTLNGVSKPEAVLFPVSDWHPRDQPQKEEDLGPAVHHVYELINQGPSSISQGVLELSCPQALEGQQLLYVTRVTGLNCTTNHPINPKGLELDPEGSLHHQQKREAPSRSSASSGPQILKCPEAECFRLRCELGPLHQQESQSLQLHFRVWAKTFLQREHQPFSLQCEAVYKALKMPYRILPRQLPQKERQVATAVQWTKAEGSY
Sequence of integrin α5β1 ectodomain (α5 F1–Y954/β1 Q1–D708) (P05556 21-728, chain 2 of 2): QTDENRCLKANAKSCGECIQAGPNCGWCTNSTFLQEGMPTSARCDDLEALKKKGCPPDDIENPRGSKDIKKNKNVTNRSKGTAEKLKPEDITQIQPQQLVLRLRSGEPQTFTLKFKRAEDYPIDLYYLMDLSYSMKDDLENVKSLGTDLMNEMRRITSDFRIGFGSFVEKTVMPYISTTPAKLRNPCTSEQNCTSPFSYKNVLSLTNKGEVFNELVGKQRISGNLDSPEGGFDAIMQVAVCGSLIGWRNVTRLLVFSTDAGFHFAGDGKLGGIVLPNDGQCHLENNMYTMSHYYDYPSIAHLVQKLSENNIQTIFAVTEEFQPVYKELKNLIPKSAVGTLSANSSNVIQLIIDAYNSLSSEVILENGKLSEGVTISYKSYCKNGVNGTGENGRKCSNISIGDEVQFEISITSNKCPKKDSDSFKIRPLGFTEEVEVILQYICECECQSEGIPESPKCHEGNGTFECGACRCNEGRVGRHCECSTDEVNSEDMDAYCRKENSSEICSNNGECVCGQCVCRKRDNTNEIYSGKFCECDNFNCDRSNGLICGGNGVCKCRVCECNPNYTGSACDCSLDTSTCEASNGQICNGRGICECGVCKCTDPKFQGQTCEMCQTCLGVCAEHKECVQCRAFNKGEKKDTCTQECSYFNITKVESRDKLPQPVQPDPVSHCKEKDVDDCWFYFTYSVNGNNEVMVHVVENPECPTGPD

B1: fibronectin fragment Fn10 (V1416–T1509) (domain or fragment)
chain: not shown
Turning to B1, the binding result is reported as “binds”.

The values above are taken from PMC9483561 (The Journal of Biological Chemistry, 2022).
